Experimental findings from paper PMC4317013 (The Journal of Biological Chemistry, 2014) are described below.

Data set [1] addresses T1, testisin (Mus musculus, UniProt Q9JHJ7).
T1 construct: purchased R&D Systems
The data set can be described thus: Cleavage by and complex formation with testisin in solution (SDS-PAGE, Western blotting, Edman degradation). The data set is classed as biochemical. The settings on record: for N-terminal testisin cleavage site: Edman degradation of testisin-cleaved protein, Fig. 1D. On the procedure:
Activation of protestisin and testisin (R&D Systems, Minneapolis, MN) activity assays were performed according to the instructions of the supplier. Inhibition of testisin by PCI was tested on 96-well F16 Black MaxiSorp plates (Nunc, Roskilde, Denmark). 20 nM testisin was incubated with 200 or 1000 nM (final concentration) rhPCI or rmPCI in the absence or presence of 5 units/ml heparin in 100 μl of testisin buffer (50 mM Tris, 150 mM NaCl, 10 mM CaCl2, pH 7.5). After a 30-min incubation at 37 °C, 100 μl of 0.2 mM fluorogenic substrate I-1295 (Bachem, Bubendorf, Switzerland) dissolved in testisin buffer was added to each well. Plates were read every 15 s at an excitation wavelength of 380 nm and an emission wavelength of 460 nm using a Synergy H4 microplate reader (BioTek, Seattle, WA). The 5-min time point was used to calculate the relative activity. The amidolytic activity of testisin in the absence of PCI was assigned to 1, and for each reaction, the remaining testisin activity was calculated. To detect the possible complex formation between PCI and testisin, different concentrations (7.5–960 nM) of rhPCI or rmPCI, respectively, were incubated with 30 nM testisin for varying times (0–40 min) at 37 °C. The reactions were stopped by adding an equal volume of 2× Laemmli buffer containing 5% 2-mercaptoethanol ([40]). Samples were heated at 99 °C for 5 min followed by sodium dodecyl sulfate-polyacrylamide electrophoresis (SDS-PAGE) and Western blotting. To determine the testisin cleavage sites in human and mouse PCI, WT PCI or PCI mutants (rhPCI, hPCI-R11G, hPCI-R354G, rmPCI, mPCI-A18G, or mPCI-R352G, respectively; 300 nM each) were incubated with 30 nM testisin for 1 h at 37 °C. […]
SDS-PAGE was performed according to the method of Laemmli ([40]) using 10% acrylamide gels. […] The signal was detected using SuperSignal West Femto or SuperSignal West Pico chemiluminescent substrate (Thermo Fisher Scientific, Rockford, IL) with a FluorChem HD2 imaging system (ProteinSimple, Santa Clara, CA). […]

In data set [2] the test system is Jurkat T cells. The procedure:
For the internalization experiment, cells were seeded at 1 × 10^6 cells/ml with 8 ml of full medium into 75-cm^2 flasks and treated with respective 200 nM proteins for 2 h or 5 μM peptides for 1 h.
Human A+-helix peptide ([…]; corresponding to the cleaved N-terminal peptide of hPCI), mouse A+-helix peptide ([…]; corresponding to the cleaved N-terminal peptide of mPCI), and TAT peptide ([…]) ([42]) were synthesized and labeled with FITC (GenScript, Piscataway, NJ). […] Fluorescence-activated cell sorting (FACS) analysis was performed with a FACSCalibur flow cytometer (BD Biosciences). Further data analysis was done with Flowing Software ([43]). For confocal microscopy, the fixed cells were suspended with Vectashield mounting medium containing […] DAPI (Vector Laboratories, Burlingame, CA) and transferred onto slides. Confocal images were taken by a Zeiss LSM-510 Meta confocal microscope system (Zeiss, Jena, Germany). Zeiss LSM Image Browser software was applied for further analysis of images.

Data set [3] concerns testisin. As to the kind of experiment: 30 nM testisin in testisin buffer (50 mM Tris, 150 mM NaCl, 10 mM CaCl2, pH 7.5). The settings on record: 37 °C, up to 120 min.
Data set [4] deals with Jurkat T cells. As to the kind of experiment: Internalization of PCI forms by Jurkat T cells (cell lysis, subcellular fractionation, Western blotting). As to conditions: 200 nM protein, 2 h, 37 °C, Western blotting with anti-mPCI IgG; for internalization by Jurkat T cells (whole cell lysate and subcellular fractions): full medium, Fig. 3. It is filed as cell-based, human. On the procedure: SDS-PAGE was performed according to the method of Laemmli ([40]) using 10% acrylamide gels. Following electrophoresis, the proteins were transferred onto PVDF membranes. The membranes were blocked with blotting buffer (5% skim milk powder and 0.05% Tween 20 in PBS, pH 7.4) for 1 h at room temperature. Rabbit anti-mPCI IgG (diluted 1:1000; homemade), rabbit anti-hPCI IgG (diluted 1:1000; homemade), monoclonal mouse anti-penta-His IgG (diluted 1:500; Qiagen, Hilden, Germany), rabbit anti-testisin IgG (diluted 1:500; Abgent, San Diego, CA), mouse monoclonal anti-A1AT(diluted 1:2000; Fisher Scientific GmbH), rabbit anti-actin IgG (diluted 1:2000; Sigma-Aldrich), monoclonal mouse anti-lamin B2 IgG (diluted 1:2000; Abcam, Cambridge, UK), and monoclonal mouse anti-Hsp 90 IgG (diluted 1:2000; Exbio, Prague, Czech) were used, respectively, in blotting buffer. The respective secondary antibodies were horseradish peroxidase-conjugated donkey anti-rabbit IgG (diluted 1:5000; GE Healthcare Handels GmbH) and horseradish peroxidase-conjugated sheep anti-mouse IgG (diluted 1:5000; GE Healthcare Handels GmbH). The signal was detected using SuperSignal West Femto or SuperSignal West Pico chemiluminescent substrate (Thermo Fisher Scientific, Rockford, IL) with a FluorChem HD2 imaging system (ProteinSimple, Santa Clara, CA).
Jurkat T cells were incubated in full medium with 200 nM rmPCI, testisin-cleaved rmPCI, or ΔR1-A18 mPCI, respectively, at 37 °C for 2 h. 1 × 10^7 cells were harvested and washed three times with PBS. To prepare whole cell lysates, cell pellets were resuspended and incubated in CelLytic M cell lysis buffer at room temperature for 10 min and applied to electrophoresis. Subcellular fractions were prepared as described previously ([41]) with some modifications. In brief, cell pellets were resuspended in 125 μl of buffer A (10 mM Hepes, pH 7.9, 10 mM KCl, 1.5 mM MgCl2, 0.34 M sucrose, 10% glycerol, 1 mM DTT, 0.1% Triton X-100) containing 10 μl of protease inhibitor mixture P8340 (Sigma-Aldrich) and incubated for 8 min. […]

A further data set concerns the target enteropeptidase (Homo sapiens, UniProt P98073). As to the kind of experiment: Interaction of PCI with other proteases: enteropeptidase. The settings on record: 300 nM rmPCI, 30 nM protease, 37 °C, Fig. 1F. The data set is classed as biochemical. On the procedure:
(§1) Urokinase, aPC, thrombin, or enteropeptidase (30 nM each) was incubated with 300 nM rmPCI, respectively, for different periods (10 or 120 min) at 37 °C. The reactions were stopped by adding an equal volume of 2× Laemmli buffer containing 5% 2-mercaptoethanol ([40]). Samples were heated at 99 °C for 5 min followed by SDS-PAGE and Western blotting.
(§2) SDS-PAGE was performed according to the method of Laemmli ([40]) using 10% acrylamide gels. Following electrophoresis, the proteins were transferred onto PVDF membranes. The membranes were blocked with blotting buffer (5% skim milk powder and 0.05% Tween 20 in PBS, pH 7.4) for 1 h at room temperature. […] The signal was detected using SuperSignal West Femto or SuperSignal West Pico chemiluminescent substrate (Thermo Fisher Scientific, Rockford, IL) with a FluorChem HD2 imaging system (ProteinSimple, Santa Clara, CA).

Another data set has as its target aPC (Homo sapiens, UniProt P04070). As to the kind of experiment: Interaction of PCI with other proteases: aPC. It is filed as biochemical. As to conditions: 300 nM rmPCI, 30 nM protease, 37 °C, Fig. 1F. On the procedure: as §1, §2
The target in a further data set is Urokinase (Homo sapiens, UniProt P00749). As to the kind of experiment: Interaction of PCI with other proteases: urokinase. It is filed as biochemical. The settings on record: 300 nM rmPCI, 30 nM protease, 37 °C, Fig. 1F. On the procedure:
as §1, §2

T1 sequence (Q9JHJ7 55-298 limits assumed): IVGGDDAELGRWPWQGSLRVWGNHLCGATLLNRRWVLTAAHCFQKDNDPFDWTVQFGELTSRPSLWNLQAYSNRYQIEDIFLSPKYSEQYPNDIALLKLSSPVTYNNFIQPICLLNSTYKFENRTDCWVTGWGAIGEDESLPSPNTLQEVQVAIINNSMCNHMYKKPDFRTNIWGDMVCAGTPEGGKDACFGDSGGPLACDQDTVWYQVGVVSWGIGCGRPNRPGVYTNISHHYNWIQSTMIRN
Chain of enteropeptidase (P98073 whole entry, species assumed): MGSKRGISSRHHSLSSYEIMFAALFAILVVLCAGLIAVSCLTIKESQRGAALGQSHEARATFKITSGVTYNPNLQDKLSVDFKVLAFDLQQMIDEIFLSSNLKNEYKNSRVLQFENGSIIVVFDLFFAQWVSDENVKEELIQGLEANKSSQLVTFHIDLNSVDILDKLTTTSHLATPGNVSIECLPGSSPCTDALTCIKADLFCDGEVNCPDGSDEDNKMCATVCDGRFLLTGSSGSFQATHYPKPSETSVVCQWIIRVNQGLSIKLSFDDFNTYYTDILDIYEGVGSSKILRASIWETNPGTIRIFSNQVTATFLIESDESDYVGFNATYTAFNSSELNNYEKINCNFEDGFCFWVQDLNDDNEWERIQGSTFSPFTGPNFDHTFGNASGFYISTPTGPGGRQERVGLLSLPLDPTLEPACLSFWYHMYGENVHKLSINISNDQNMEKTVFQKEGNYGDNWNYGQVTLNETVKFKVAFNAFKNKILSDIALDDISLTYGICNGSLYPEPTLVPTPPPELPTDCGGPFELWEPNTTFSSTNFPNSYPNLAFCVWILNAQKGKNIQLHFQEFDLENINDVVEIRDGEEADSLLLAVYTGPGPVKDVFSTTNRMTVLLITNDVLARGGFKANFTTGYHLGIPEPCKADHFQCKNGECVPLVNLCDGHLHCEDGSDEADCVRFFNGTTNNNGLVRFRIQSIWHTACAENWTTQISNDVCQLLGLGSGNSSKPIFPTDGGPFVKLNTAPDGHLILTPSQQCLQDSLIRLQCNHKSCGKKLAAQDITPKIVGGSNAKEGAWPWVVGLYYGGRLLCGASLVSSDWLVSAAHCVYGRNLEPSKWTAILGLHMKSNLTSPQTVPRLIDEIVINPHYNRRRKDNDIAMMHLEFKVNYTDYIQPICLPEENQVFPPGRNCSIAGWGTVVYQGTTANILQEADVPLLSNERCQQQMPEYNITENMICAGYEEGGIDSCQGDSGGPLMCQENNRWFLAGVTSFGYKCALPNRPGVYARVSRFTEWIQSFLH
Chain of aPC (P04070 212-461 limits assumed): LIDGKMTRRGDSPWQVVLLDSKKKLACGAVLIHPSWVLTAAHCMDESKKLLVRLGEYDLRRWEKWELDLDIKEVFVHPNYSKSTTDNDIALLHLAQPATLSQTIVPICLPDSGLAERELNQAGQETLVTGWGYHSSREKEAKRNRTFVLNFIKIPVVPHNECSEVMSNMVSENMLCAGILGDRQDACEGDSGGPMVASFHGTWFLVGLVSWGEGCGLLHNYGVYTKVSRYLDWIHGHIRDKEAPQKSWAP
Chain of aPC (P04070 43-197 partner limits assumed): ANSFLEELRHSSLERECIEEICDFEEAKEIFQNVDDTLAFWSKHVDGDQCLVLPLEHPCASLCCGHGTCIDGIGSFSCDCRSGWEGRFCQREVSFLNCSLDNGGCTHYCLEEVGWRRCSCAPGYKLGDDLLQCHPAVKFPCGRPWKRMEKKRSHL

Regarding “A1AT: serum-derived human α1-antitrypsin (Sigma-Aldrich), another serpin [reference compound]”, the “cleavage by testisin (Western blotting)” value with testisin [1] (300 nM protein, 30 nM testisin, 0–40 min, 37 °C, testisin buffer, Fig. 1A, B) is given as “Neither cleavage”.

On to HRHHPREMKKR [human A+-helix-FITC], for which the “intracellular localization (confocal microscopy)” value in the data set with Jurkat T cells [2] was “cytosolic and nuclear localization”.

As for HRHHPREMKKRVEDLHVGATV..., the cleaved bond result in the data set with testisin [3] was “Arg11-Val12”.

“RRHSHSKKKKAKESSVGA [mouse A+-helix-FITC]”: the “intracellular localization (confocal microscopy)” value in the data set with Jurkat T cells [2] is “cytosolic and nuclear localization”.

B1: rmPCI: recombinant mouse protein C inhibitor with N-terminal His tag (protein, UniProt P70458 25-405, looked up)
Plasma serine protease …: SKKKKAKESSVGAVGPPSSKDFAFRLYRALVSESPGQNVFFSPLSVSMSLGMLSLGAGLKTKTQILDGLGLSLQQGQEDKLHKGFQQLLQRFRQPSDGLQLSLGSALFKDPAVHIRDDFLSAMKTLYMSDTFSTNFGNPEIAKKQINNYVAKQTKGKIVDFIKDLDSTHVMIVVNYIFFKAKWQTAFSETNTHKMDFHVTPKRTTQVPMMNREDGYSYYLDQNISCTVVGIPYQGNAIALFILPSEGKMKQVEDGLDERTLRNWLKMFTKRRLDLYLPKFSIEATYKLENVLPKLGIQDVFTTHADLSGITDHTNIKLSEMVHKSMMEVEESGTTAAAITGAIFTFRSARPSSLKIEFTRPFLLTLMEDSHILFVGKVTRP
modifications: N-terminal His tag
B1: the “internalization by Jurkat T cells (whole cell lysate and subcellular fractions)” value with Jurkat T cells [4] was “taken up by Jurkat T cells and translocated to the nucleus”. The “detection in subcellular fractions of Jurkat T cells” value with Jurkat T cells [4] (Fig. 4D) is reported as “detected in the nuclear envelope fraction”. Also, the “N-terminal testisin cleavage site” value in the data set with testisin [1] was “between Ala^18 and Val^19”. Besides, the cleavage by enteropeptidase entry with enteropeptidase (10 or 120 min, anti-mPCI IgG) is recorded as “appearance of a cleaved PCI form”. Further, the “N-terminal cleavage by enteropeptidase” value in the data set with enteropeptidase (120 min, anti-penta-His IgG) is given as “do not cleave the N terminus”. Also, the “cleavage by aPC” value with aPC (10 or 120 min, anti-mPCI IgG) is given as “appearance of a cleaved PCI form”. Further, the “N-terminal cleavage by aPC” value with aPC (120 min, anti-penta-His IgG, N-terminally cleaved form in aPC-PCI complex not completely ruled out) is “do not cleave the N terminus”. For the same molecule, in the data set with Urokinase (10 or 120 min, anti-mPCI IgG), the cleavage by urokinase result is given as “appearance of a cleaved PCI form”. Besides, in the data set with Urokinase (120 min, anti-penta-His IgG), the “N-terminal cleavage by urokinase” value is “do not cleave the N terminus”.

B2: rmPCI preincubated with U937 cells: rmPCI preincubated with testisin-expressing U937 cells (protein, UniProt P70458 25-405, looked up)
Plasma serine protease …: B1 Plasma serine protease …
modifications: preincubated with U937 cells
As for B2, the “internalization by Jurkat T cells (whole cell lysate and subcellular fractions)” value in the data set on Jurkat T cells [4] is “not detected inside Jurkat T cells”.

B3: rhPCI: recombinant human protein C inhibitor with N-terminal His tag (protein, UniProt P05154 26-406, looked up)
Plasma serine protease …: EMKKRVEDLHVGATVAPSSRRDFTFDLYRALASAAPSQSIFFSPVSISMSLAMLSLGAGSSTKMQILEGLGLNLQKSSEKELHRGFQQLLQELNQPRDGFQLSLGNALFTDLVVDLQDTFVSAMKTLYLADTFPTNFRDSAGAMKQINDYVAKQTKGKIVDLLKNLDSNAVVIMVNYIFFKAKWETSFNHKGTQEQDFYVTSETVVRVPMMSREDQYHYLLDRNLSCRVVGVPYQGNATALFILPSEGKMQQVENGLSEKTLRKWLKMFKKRQLELYLPKFSIEGSYQLEKVLPSLGISNVFTSHADLSGISNHSNIQVSEMVHKAVVEVDESGTRAAAATGTIFTFRSARLNSQRLVFNRPFLMFIVDNNILFLGKVNRP
modifications: N-terminal His tag
On to B3, for which the “N-terminal testisin cleavage site” value with testisin [1] was “between Arg^11 and Val^12”.
